We go through one molecule from patent US20030134779A1, “Method and composition for treatment and/or prevention of antibiotic-resistant microorganism infections” (priority 2002, published 2003).

The subject of series [1] is β-lactamase activity of S. aureus PC-1. Briefly: β-lactamase activity, nitrocefin assay, human LF. The format is cell-based. Particulars: incubation for 4 h.
In series [2] the test system is β-lactamase activity of S. aureus SHY97-4320. Briefly: β-lactamase activity, nitrocefin assay, human LF. It counts as cell-based, Staphylococcus aureus. Here is the method: Penicillin G was purchased from Novopharm Limited (Toronto, Ontario, Canada). […] Antibiotic stock solutions were always freshly prepared and diluted to the desired concentration in Mueller Hinton broth (MHB) medium (Difco Laboratories, Detroit, MI). β-Lactamase activity was measured using a quantitative spectrophotometric assay with the chromogenic cephalosporin nitrocefin. Bacterial cells were first exposed to penicillin and/or LF during 4 and 22-h in broth. At each time point, the number of cfu/ml were determined and cells aliquots were centrifuged.
The pellets were suspended in 10 mM HEPES buffer (pH 7.4) to an OD415 nm of 0.4 for PC-1 and 4 for strain SHY97-4320. Nitrocefin (100 μM) was added to 20 μl of cells in a final volume of 200 μl. Hydrolysis was measured at 486 nm on a Spectra Max 250 Microplate Spectrophotometer System of Molecular Device (Fisher Scientific, Ottawa, Canada). β-Lactamase activity was expressed as ΔO.D.486 nm/min and corrected for bacterial OD.

Sequence of β-lactamase activity of S. aureus SHY97-4320 (P00807 25-281): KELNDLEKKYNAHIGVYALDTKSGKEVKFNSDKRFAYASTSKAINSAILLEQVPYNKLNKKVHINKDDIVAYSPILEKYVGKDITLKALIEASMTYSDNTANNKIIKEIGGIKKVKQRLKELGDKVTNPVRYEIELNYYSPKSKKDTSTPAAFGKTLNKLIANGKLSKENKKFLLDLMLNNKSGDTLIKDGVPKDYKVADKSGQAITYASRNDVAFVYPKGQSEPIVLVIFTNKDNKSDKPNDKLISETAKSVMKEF
Sequence of β-lactamase activity of S. aureus PC-1 (P00807 25-281): as above

B1: human LF: Human LF (Sigma) (protein, UniProt P02788 20-710, looked up)
Lactotransferrin: GRRRSVQWCAVSQPEATKCFQWQRNMRKVRGPPVSCIKRDSPIQCIQAIAENRADAVTLDGGFIYEAGLAPYKLRPVAAEVYGTERQPRTHYYAVAVVKKGGSFQLNELQGLKSCHTGLRRTAGWNVPIGTLRPFLNWTGPPEPIEAAVARFFSASCVPGADKGQFPNLCRLCAGTGENKCAFSSQEPYFSYSGAFKCLRDGAGDVAFIRESTVFEDLSDEAERDEYELLCPDNTRKPVDKFKDCHLARVPSHAVVARSVNGKEDAIWNLLRQAQEKFGKDKSPKFQLFGSPSGQKDLLFKDSAIGFSRVPPRIDSGLYLGSGYFTAIQNLRKSEEEVAARRARVVWCAVGEQELRKCNQWSGLSEGSVTCSSASTTEDCIALVLKGEADAMSLDGGYVYTAGKCGLVPVLAENYKSQQSSDPDPNCVDRPVEGYLAVAVVRRSDTSLTWNSVKGKKSCHTAVDRTAGWNIPMGLLFNQTGSCKFDEYFSQSCAPGSDPRSNLCALCIGDEQGENKCVPNSNERYYGYTGAFRCLAENAGDVAFVKDVTVLQNTDGNNNEAWAKDLKLADFALLCLDGKRKPVTEARSCHLAMAPNHAVVSRMDKVERLKQVLLHQQAKFGRNGSDCPDKFCLFQSETKNLLFNDNTECLARLHGKTTYEKYLGPQYVAGITNLKKCSTSPLLEACEFLRK
Consider B1, for which, in series [1], the “reduction of β-lactamase activity” value is 50%. Moreover, the β-lactamase activity entry is recorded as “an important reduction of the β-lactamase activity” in series [2] (1 mg/ml human LF added at the same time as 8 μg/ml penicillin G, P<0.001) and “no β-lactamase activity” in series [2] (human LF 1 mg/ml alone).
